Laboratory results from patent US20180258165A1 (CELL MEDICA SWITZERLAND, published 2018).

T1: mouse IL-1 beta (mouse, UniProt P10749 118-269)
T1 construct: Bought recombinant protein
T1 sequence (looked up): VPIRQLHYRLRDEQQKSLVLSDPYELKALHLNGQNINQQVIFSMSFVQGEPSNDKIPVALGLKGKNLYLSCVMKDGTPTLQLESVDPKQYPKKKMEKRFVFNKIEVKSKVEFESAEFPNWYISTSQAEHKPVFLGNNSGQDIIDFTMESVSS

T2: cynomolgus IL-1 beta (cynomolgus, UniProt P79182 117-268)
T2 construct: Bought recombinant protein; also called cymonolgus IL-1 beta
T2 sequence (looked up): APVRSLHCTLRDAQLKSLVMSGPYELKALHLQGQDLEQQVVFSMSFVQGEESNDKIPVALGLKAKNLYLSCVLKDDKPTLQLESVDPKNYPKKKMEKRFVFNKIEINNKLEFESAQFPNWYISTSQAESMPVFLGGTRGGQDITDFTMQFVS

T3: rhesus macaque IL-1 beta (rhesus macaque, UniProt P48090 117-269)
T3 construct: Bought recombinant protein
T3 sequence (looked up): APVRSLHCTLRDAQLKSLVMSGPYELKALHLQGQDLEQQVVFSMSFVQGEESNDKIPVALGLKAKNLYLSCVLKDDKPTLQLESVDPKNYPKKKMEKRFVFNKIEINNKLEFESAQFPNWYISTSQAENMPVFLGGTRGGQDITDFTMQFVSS


Key:
mouse IL-1 beta = target: T1, mouse IL-1 beta; experiment: ELISA, IL-1 beta coated at 2 mcg/ml, DLX2295 at 0.1, 0.3 and 1.0 mcg/ml, Protein L-HRP
Description: (§1) Binding to the recombinantly expressed IL-1 beta proteins of the following species was investigated: cynomolgus (Sino Biological Inc., USA, cat. no. 90010-CNAE), rhesus macaque (R&D Systems, USA, cat. no. 1318-RL/CF) and mouse IL-1 beta (BioLegend, cat. no. 575102). […] Briefly, proteins were coated at a concentration of 2 mcg/ml over night at 4° C. on Maxisorp 96-well microplates in PBS pH 7.2. […] The ELISAs were developed with BM Blue POD substrate (Roche Applied Science) and the absorbance was measured at 450 nm.

cynomolgus IL-1 beta = target: T2, cynomolgus IL-1 beta; experiment: as above
Description: as §1

rhesus macaque IL-1 beta = target: T3, rhesus macaque IL-1 beta; experiment: as above
Description: as §1

[1] = target: T4, recombinant human IL-1 beta (human, UniProt P01584 117-269, biotinylated in the ELISA of Example 2 (R&D systems, cat. no. NFLB0), sites not stated; unlabelled elsewhere); experiment: cell-based or functional assay
[2] = target: T4, recombinant human IL-1 beta; experiment: ELISA, rhIL-1 beta coated, scFv 10 to 3'000 ng/ml, Protein L-HRP
Description: A scFv of irrelevant specificity was used as a control. rhIL-1 beta (Peprotech, cat. no. 200-01B) was coated to NUNC 96-well Maxisorp immunoplates. After blocking scFvs were titrated from 10 to 3′000 ng/ml. Bound scFvs were detected by Protein L-HRP (Sigma-Aldrich, cat. no. P3226), and the ELISA was developed using BM Blue POD substrate (Roche Applied Science, cat. no. 11484281001). For quantification purposes, the absorption was measured at 450 nm using VersaMax microplate reader (Molecular Devices).

binding result (mouse IL-1 beta)	binding result (cynomolgus IL-1 beta)	binding result (rhesus macaque IL-1 beta)	IC50 of IL-1 beta-induced IL-6 release from human dermal fibroblasts [1] [pM]	binding result [2]	Binder
binds	binds	binds	2 to 5		DLX2295 (scFv, also called anti-IL-1 beta scFv DLX2295) scFv: DIQMTQSPSTLSASVGDRVTITCRASQDISNYLSWYQQKPGKAPKLLIYYTSKLHSGVPSRFSGSGSGAEFTLTISSLQPEDFATYFCLQGKMLPWTFGQGTKLEIKRGGGGSGGGGSGGGGSGGGGSEVQLVESGGGSVQPGGSLRLSCAFSGFSLSTSGMGVGWIRQAPGKGLEWVSHIWWDGDESYNPSLKGRFTISKDTSRNTVYLQMNSLRAEDTASYFCARNRYDPPWFVDWGQGTTVTVSS
			~8		DLX2296 (scFv) scFv: DIQMTQSPSTLSASVGDRVTITCRASQDISNYLSWYQQKPGKAPKLLIYYTSKLHSGVPSRFSGSGSGAEFTLTISSLQPEDFATYFCLQGKMLPWTFGQGTKLEIKRGGGGSGGGGSGGGGSGGGGSEVQLVESGGGLVQPGGSLRLSCAFSGFSLSTSGMGVGWIRQAPGKGLEWVSHIWWDGDESYNPSLKGRFTISKDTSRNTVYLQMNSLRAEDTAVYFCARNRYDPPWFVDWGQGTLVTVSS
			~100		DLX2260 (scFv) scFv: EIVMTQSPSTLSASVGDRVIITCRASQDISNYLSWYQQKPGKAPKLLIYYTSKLHSGVPSRFSGSGSGAEFTLTISSLQPDDFATYYCLQGKMLPWTFGQGTKLTVLGGGGGSGGGGSGGGGSGGGGSEVQLVESGGGLVQPGGSLRLSCTASGFSLSTSGMGVGWVRQAPGKGLEWVGHIWWDGDESYNPSLKSRFTISRDTSKNTVYLQMNSLRAEDTAVYYCARNRYDPPWFVDWGQGTLVTVSS
				binds	DLX2332 (scFv, also called anti-IL-1 beta scFv DLX2332) scFv: EIVMTQSPSTLSASVGDRVIITCRASQDISNYLSWYQQKPGKAPKLLIYYTSKLHSGVPSRFSGSGSGAEFTLTISSLQPEDFATYFCLQGKMLPWTFGQGTKLTVLGGGGGSGGGGSGGGGSGGGGSEVQLVESGGGSVQPGGSLRLSCAASGFSLSTSGMGVGWVRQAPGKGLEWVGHIWWDGDESYNPSLKSRFTISRDTSKNTVYLQMNSLRAEDTASYFCARNRYDPPWFVDWGQGTTVTVSS
